In the DeepSol protein solubility set:

test: soluble on expression in E. coli; label from the status in PepcDB or PDB records

Sequence	soluble on expression in E. coli
GDFAYTVGFNMSKNWNKVTNLGANDPIIESPWIKKVGYAIGTFYGYRSDGLLTQEDIDTGNYITDGLVPQAGDIKYVDLDGDGKLTDKDRTYIGCDVPDITYGVNLNLRYKGFELSMFGQGVTGTKVNFSMENAWAFSDYASPRKYHLKRWTVDNPNPNAAYPRIYPRTSKHSTYNQYFSDYWLFNADYFRIKNITFGYSFQKPVLQKLSLEALKLYVAAENPFTIRADHRMEDFDPETASGRGVNTRGTSSIAFGVNLTF	not soluble
MSLLKQKITQAPKTKISQTLRSWLPILQANIEDLKENLDKFAEDNPFLNVQDSIQTHDKGKNYFDSFYKHNVNSAFVDSKGLAKKSVYELLNEQILPPLFPTNKSQELAKKIIECLNEEGYFEYDEEFLKEYSLEEIERVRARFKFLDPVGVGAKDYKEAFLFALENMELDEDIDEFCRMLIMDFENIQNYTKEPLYKEALAVLKRFSTPPFLEYFEDSRIIVPDIFVYKENGEIKVKINDDYYPEISIQTDGLEHDFLSHYIKEAKNLVDALAMRKATLYKIGLMIVEYQYDFFMGKEIKPMTFKDLALDLERNASTISRAVANKYLSCERGLIPLRDFFAFALDEEGETSNVGVKEFVANLVKNEDRNKPLSDSKILELIKEEFKVDIGRRTITKYRKHLNIASSTDRKKLYELEGEGHHHHHH	soluble
MGSDKIHHHHHHMDSYKQYIKEALPNLSIHSYKQNEEGWDNVAIIVNDELLFRFPRKQEYAMRIPLEKELCTLLSCSLHEIEVPKYHLFYEKNTDAIPLCSYYTLIHGEPLKTEIVTTLEKQERKALITQLATFLAALHSIPLKSVTALGFPIEKTLTYWKELQAKLNEYVTNSLTSFQKSTLNRLFENFFACLATSKFQNTIIHADFTHHHILFDKQNKTISGVIDFGDAQIGDPAFDFAGLYYDFGHEFTTSVYEQYSTLTSHHDPLLIHRITSFYQYSPLLHNMIYNFETKNELEFLASIEQLKVILQG	not soluble
MKESMSSVDIKYITEELKDMIVGSRVEKIYHEGNEIRFKLHKTGVGRVDLLIEAGKRIHITTYVKENLQPTSFAMLLRKYLSGKFLEDIRQYEFDRVVILSFGEYFLIAELFGRGNIIFVTKDWEIIGALRYEEFKDRAIKPKIKYVFPPSRANPLKVSFEEFKEIILNSQGTEIVRALAKNFSIGGLYSEETLLRAKIDKDRKVDELSEEELRLVYDTLLTVLNDEKKPNIVYNKEGVMVDVVPIDLQWYREYTKRYYESFSEALDEYFGKLTIEKARLEKTKQLEERRKALEISLRRIEEQIKGFEKEAMTNQEKGDALYAHYSIVNEILRVISSALKQYGVEEVKKRIEEGKKAGYPWAKMIIDVTDNKVTLNLDGIKVSLDVEKSLEENAELYYERAKKAKKKLEGAKIAYEETKRKLIELEKEIERESKEINIKKITRKKKKWFE	not soluble
MVPAAQQTATAPDAALTFPEGFLWGSATASYQIEGAAAEDGRTPSIWDTYARTPGRVRNGDTGDVATDHYHRWREDVALMAELGLGAYRFSLAWPRIQPTGRGPALQKGLDFYRRLADELLAKGIQPVATLYHWDLPQELENAGGWPERATAERFAEYAAIAADALGDRVKTWTTLNEPWCSAFLGYGSGVHAPGRTDPVAALRAAHHLNLGHGLAVQALRDRLPADAQCSVTLNIHHVRPLTDSDADADAVRRIDALANRVFTGPMLQGAYPEDLVKDTAGLTDWSFVRDGDLRLAHQKLDFLGVNYYSPTLVSEADGSGTHNSDGHGRSAHSPWPGADRVAFHQPPGETTAMGWAVDPSGLYELLRRLSSDFPALPLVITENGAAFHDYADPEGNVNDPERIAYVRDHLAAVHRAIKDGSDVRGYFLWSLLDNFEWAHGYSKRFGAVYVDYPTGTRIPKASARWYAEVARTGVLPTA	soluble
MVKLIHTLADHGDDVNCCAFSFSLLATCSLDKTIRLYSLRDFTELPHSPLKFHTYAVHCCCFSPSGHILASCSTDGTTVLWNTENGQMLAVMEQPSGSPVRVCQFSPDSTCLASGAADGTVVLWNAQSYKLYRCGSVKDGSLAACAFSPNGSFFVTGSSCGDLTVWDDKMRCLHSEKAHDLGITCCDFSSQPVSDGEQGLQFFRLASCGQDCQVKIWIVSFTDILARRTEHQLKQFTEDWSEEDVSTWLCAQDLKDLVGIFKMNNIDGKELLNLTKESLADDLKIESLGLRSKVLRKIEELRTKVKSLSSGIPDEFICPITRELMKDPVIASDGYSYEKEAMENWISKKKRTSPMTNLVLPSAVLTPNRTLKMAINRWLETHQK	soluble
MGSDKIHHHHHHMEIAVLGGGNGSTAAAVDLTAQGHNIRFWRRNASAQAELKARGNVITLKDFEGARPIRITMVTDDIGEAIRGAELIVCPTPATAQSDIAAAMAPHLADGQVVFLPPGSFGSWIMADIVRKAGNHADVSWAETGTLPYLTRLHGADTVAITTRATRLPTGVYPLRNAEHAHSVLARAYPAVEPAGDALSGALMNAGPIIHPPLITMNAGPIEHFDHWDIHNEGTQPAIRRVTTRLDAERMAVREALGYGAPHFPLADHYETSDWMYGNLAHDKLVDSGDWREHLVLTEHRYMREDVAVGLALLVSVADWAGVPAPTATGLLALGSAICDDDFRQSGRTLENLGLADMDRAALQTMLRDGA	not soluble
MGSDKIHHHHHHMIDELRAMAIFAETIKQGSFRAAAKELKLSPSVVSYQVTQLEKSVGTALIYRSTRKLSLTSEGGVLYQYALNMIQAAQQGLNQVAIEKQELRGTLTLTLPSALIKSEISKKISQFSKLHPFLNFKLFYTDDRQDLIHQGIDLAFRAGSMDDSNLKSKRVGEINRKLVCSYDYWKENIPPISPQDLTTWNWIKLDMLPNHRTLVNSAGEKCDIDFESNISVNNVEAMTQLCINGAGIATPPDYLIEKEIENNALVELLPNWQVESIPLYAVWPSNVFQNSSVKRLLEFLI	not soluble
EEAKEGVPKVAYISLSPPFVGNYALDGSPRLRVYKADVALRVTGDEAAKTVKHHEPLIRNQLVALFTQQTVDSMSNVEAKEHLRQEALKQVQQVLEAEEGKPIVEDLLFNNLIVQ	not soluble
MKPKAITFDFWGTLFTEGEAFLEKVMPARYEILLDALSEAGHPVDEAEVREAYRQASLAFEEAWKAGEHMPVYERVARIFALLGAPHDPGLIALTARRLEESSLLAPLKPLPGVEVLKDLAKKYPLAIVSDTGMTPGRLLREHLKRQGLDVFQAFSFSDETGFVKPKPEAFRVALEALGVAPEEALHVGDLPQTDIKGAFGTGYPWAVQYVGLREVNGEVRPTAKVKDHRELLSLLT	soluble
MSLDTQSDYVVVGTGSAGAVVASRLSTDPATTVVALEAGPRDKNRFIGVPAAFSKLFRSEIDWDYLTEPQPELDGREIYWPRGKVLGGSSSMNAMMWVRGFASDYDEWAARAGPRWSYADVLGYFRRIENVTAAWHFVSGDDSGVTGPLHISRQRSPRSVTAAWLAAARECGFAAARPNSPRPEGFCETVVTQRRGARFSTADAYLKPAMRRKNLRVLTGATATRVVIDGDRAVGVEYQSDGQTRIVYARREVVLCAGAVNSPQLLMLSGIGDRDHLAEHDIDTVYHAPEVGCNLLDHLVTVLGFDVEKDSLFAAEKPGQLISYLLRRRGMLTSNVGEAYGFVRSRPELKLPDLELIFAPAPFYDEALVPPAGHGVVFGPILVAPQSRGQITLRSADPHAKPVIEPRYLSDLGGVDRAAMMAGLRICARIAQARPLRDLLGSIARPRNSTELDEATLELALATCSHTLYHPMGTCRMGSDEASVVDPQLRVRGVDGLRVADASVMPSTVRGHTHAPSVLIGEKAADLIRSEGHHHHHH	soluble
ICNKYKNINVNMKKNNDDTWTDLVKNSSDINKGVLLPPRRKNLFLKIDESDICKYKRDPKLFKDFIYSSAISEVERLKKVYGEAKTKVVHAMKYSFADIGSIIKGDDMMENNSSDKIGKILGDGVGQNEKRKKWWDMNKYHIWESMLSGYKHAYGNISENDRKMLDIPNNDDEHQFLRWFQEWTENFCTKRNELYENMVTACNSAKCNTSNGSVDKKECTEACKNYSNFILIKKKEYQSLNSQYDMNYKETKAEKKESPEYFKDKCNGECSCLSEYFKDETRWKNPYETLDDTEVKNNCMCK	soluble
MLDLTTNPIDLTRALVDIESPSHYEKNIADAIEQALHAIDNVEVLRHGNTLVARTHRGLGERVILAGHIDTVPIADNVPSHMEGDVMFGCGTVDMKSGMAVYLHAFATLANHPALAKDLTVVCYEGEEVASEYNGLGHVQAAHPDWLSGDLALLGEPSGAVIEAGCQGTIRLRVTAHGVRAHSARSWLGDNAMHKLAPVITNIAQYHAQEMLVDGCLYHEGLNIVHCESGVATNTIPDEAWMFVNFRFAPNRSVDEALAHMLEVLDLPEGVTYDIDDAVPGARPGLDRPAAAALLEATGGKFRAKYGWTDVSRFSEIGVPAVNFGPGDPAYCHKKDEQCPVSMITEVSRTLVHYLTSTNSQTTGA	not soluble
ACRISPGQINQVRPKLPLLKILHAAGAQGEMFTVKEVMHYLGQYIMVKQLYDQQEQHMVYCGGDLLGELLGRQSFSVKDPSPLYDMLRKNLVTLATATTDA	soluble
TSADGLKLVANYLEAPSPSNTTIILAHGYRGKSGKVEMAGLARMYNQKFGYNVLMPDARAHGESEGKNIGFGWPERKDYVQWTNQVLDKNGDDTEIVLHGVSMGSSTVLMTSAEKLPKQVKSIIADCGYTSMDAELAYQLKAMFHLPKFPIIPMASLINKVKEGFFFSEASAINAVAETDLPIFYIHGDSDAFVPTSMVEELYDATKSYKEKWVVKGAEHGQAFTVEPETYEEKVRQFLTKTM	not soluble
MSLKPVMIIQFSASEGPGHFGDFLAGEHIPFQVLRMDRSDPLPAEIRDCSGLAMMGGPMSANDDLPWMPTLLALIRDAVAQRVPVIGHCLGGQLLAKAMGGEVTDSPHAEIGWVRAWPQHVPQALEWLGTWDELELFEWHYQTFSIPPGAVHILRSEHCANQAYVLDDLHIGFQCHIEMQAHMVREWCSISPEELKGGAEADPAQPMVQSAVEILRDLDVRIATLNRWAEHVYARWIKGLQREGHHHHHH	soluble
MGSDKIHHHHHHLYSFTIASDTIELVKSLHYSILVLNMEAEEMFSKKQDPFAVKLSEIAGHLQRTSQFFVDFKINGIADVKEFAHKVKDFETAGDDLMHQLIIDLNNAFITPIDREDLLALANSLDDVLDGFEECSAIFEIYNIVQADEHMIRFVDEIHIAVNELALSMDLLVARKLQPMREHVIKVKEQETICDNLRRKSIKALFATETDPIKIIQYKEIYESLESIADYCQDAANVIETIIMKNA	not soluble
MILRIIYTLLNYLSQPVLLLMMWRKTARHTKQTSRLWERYGIYRQLTAPRPQGIVIHAASVGEVIAATPLINAIQTHYPALPITVTTFTQTASERVQAIFANTVSHIYLPFDLPFAVNRFIKFTQPRLFIVIETELWPNLITQTYRQHIPFIIANGRLSARSLKHYQWFNPALQKILNQISMIIAQDQISAERYAQLGFNSQQLTTAGNLKFDLEISEQLRQTIQKTKQTLTLGNRPVWIAGSTHEGEDEIILATHQQLLSEWPDLLLILAPRHPNRFKNVENLLIKSELCYVKRSQQCPLTDHTQVLLADTLGEMMILYGLANIAFVGGSLIKHGGHNPLEPIAFGLPIISGIHTFNFLEIFNKLKAIHGVIEVTNDPADLAQAVNLLLKDPKKYTAIAQAGLSMLKANQGSLQRHLQLLAPYLEKLEHHHHHH	not soluble
MKPPPRRRAAPARYLGEVTGPATWSAREKRQLVRLLQARQGQPEPDATELARELRGRSEAEIRVFLQQLKGRVAREAIQKVHPGGLQGPRRREAQPPAPIEVWTDLAEKITGPPEEAVAVAFSQVLTIAATEPVTLLHSKPPKPTQARGKPLLLSAPGGQEDPAPEIPSSAPAAPSSAPRTPDPAPEKPSESSAGPSTEEDFAVDFEKIYKYLSSVSRSGRSPELSAAESAVVLDLLMSLPEELPLLPCTALVEHMTETYLRLTAPQPIPAGGSLGPAAEGVGAGSKAPEETPPATEKAEHSELKSPWQAAGICPLNPFLVPLELLGRAATPAR	soluble
